T1: SPRTN-EQ (catalytically inactive) (UniProt Q9H040 1-489, E112Q)
T1 sequence: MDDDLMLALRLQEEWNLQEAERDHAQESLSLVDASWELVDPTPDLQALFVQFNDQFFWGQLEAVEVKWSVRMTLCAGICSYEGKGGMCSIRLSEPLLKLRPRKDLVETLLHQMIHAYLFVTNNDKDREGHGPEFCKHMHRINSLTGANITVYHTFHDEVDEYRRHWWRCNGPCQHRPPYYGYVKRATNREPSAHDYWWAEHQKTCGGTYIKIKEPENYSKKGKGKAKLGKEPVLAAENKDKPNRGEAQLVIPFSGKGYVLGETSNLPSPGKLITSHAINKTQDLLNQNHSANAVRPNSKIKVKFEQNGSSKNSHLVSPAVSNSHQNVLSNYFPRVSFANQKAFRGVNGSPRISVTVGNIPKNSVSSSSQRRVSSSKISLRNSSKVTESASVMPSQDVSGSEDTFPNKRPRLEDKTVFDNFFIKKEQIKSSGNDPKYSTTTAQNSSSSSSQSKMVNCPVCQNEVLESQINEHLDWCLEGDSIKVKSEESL

B1: Junction-DPC (substrate e) (mixed)
DNA 1: CCCAAAAAAAAAAATAAAAAAAAAAAACCC
DNA 2: GGGTTTTTTTTTTTT
modifications: dT15 of strand 1 covalently conjugated to protein G; strand 1 3'-phosphate
B2: dsDPC (substrate f) (dsDNA)
DNA 1: CCCAAAAAAAAAAATAAAAAAAAAAAACCC
DNA 2: GGGTTTTTTTTTTTTATTTTTTTTTTTGGG
modifications: dT15 of strand 1 covalently conjugated to protein G; strand 1 3'-phosphate

Target: T1, SPRTN-EQ (catalytically inactive)
Assay: EMSA

| Binder | binding result |
| --- | --- |
| B1 | binds |
| B2 | binds |
